Experimental data as given in patent US20240398902A1.

Tests used:
[1] = target: Type I IFN receptor (IFNAR1 and IFNAR2) on HEK-Blue 293 reporter cells (UniProt P17181); test: cell-based or functional assay
[2] = target: Type II IFN receptor (IFNGR1 and IFNGR2) on HEK-Blue 293 reporter cells (UniProt P15260); test: cell-based or functional assay
Chain of Type II IFN receptor (IFNGR1 and IFNGR2) on HEK-Blue 293 reporter cells (P15260 18-489 limits assumed, chain 1 of 2): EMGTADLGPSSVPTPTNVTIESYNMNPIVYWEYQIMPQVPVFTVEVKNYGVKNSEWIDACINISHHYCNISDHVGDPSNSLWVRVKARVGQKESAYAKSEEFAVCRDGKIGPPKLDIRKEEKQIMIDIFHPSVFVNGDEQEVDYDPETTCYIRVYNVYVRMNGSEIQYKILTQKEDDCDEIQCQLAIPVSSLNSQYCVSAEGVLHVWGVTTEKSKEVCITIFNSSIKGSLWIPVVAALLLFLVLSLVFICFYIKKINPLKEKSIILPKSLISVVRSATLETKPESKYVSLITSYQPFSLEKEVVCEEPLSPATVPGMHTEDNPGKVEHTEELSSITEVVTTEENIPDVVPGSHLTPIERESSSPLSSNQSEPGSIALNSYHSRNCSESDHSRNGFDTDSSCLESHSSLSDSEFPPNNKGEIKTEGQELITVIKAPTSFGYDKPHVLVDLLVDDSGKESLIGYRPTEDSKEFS
Chain of Type II IFN receptor (IFNGR1 and IFNGR2) on HEK-Blue 293 reporter cells (P38484 22-337 limits assumed, chain 2 of 2, further chain): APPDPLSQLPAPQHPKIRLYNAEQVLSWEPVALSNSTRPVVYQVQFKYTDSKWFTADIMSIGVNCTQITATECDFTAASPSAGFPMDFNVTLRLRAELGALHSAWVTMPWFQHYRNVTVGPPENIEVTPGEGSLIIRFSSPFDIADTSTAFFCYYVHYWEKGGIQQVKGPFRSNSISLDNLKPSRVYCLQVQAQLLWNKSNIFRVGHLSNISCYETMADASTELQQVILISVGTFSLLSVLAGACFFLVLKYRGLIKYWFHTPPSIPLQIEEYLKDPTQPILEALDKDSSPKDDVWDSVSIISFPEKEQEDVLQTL

Chain of Type I IFN receptor (IFNAR1 and IFNAR2) on HEK-Blue 293 reporter cells (P17181 28-557 limits assumed, chain 1 of 2): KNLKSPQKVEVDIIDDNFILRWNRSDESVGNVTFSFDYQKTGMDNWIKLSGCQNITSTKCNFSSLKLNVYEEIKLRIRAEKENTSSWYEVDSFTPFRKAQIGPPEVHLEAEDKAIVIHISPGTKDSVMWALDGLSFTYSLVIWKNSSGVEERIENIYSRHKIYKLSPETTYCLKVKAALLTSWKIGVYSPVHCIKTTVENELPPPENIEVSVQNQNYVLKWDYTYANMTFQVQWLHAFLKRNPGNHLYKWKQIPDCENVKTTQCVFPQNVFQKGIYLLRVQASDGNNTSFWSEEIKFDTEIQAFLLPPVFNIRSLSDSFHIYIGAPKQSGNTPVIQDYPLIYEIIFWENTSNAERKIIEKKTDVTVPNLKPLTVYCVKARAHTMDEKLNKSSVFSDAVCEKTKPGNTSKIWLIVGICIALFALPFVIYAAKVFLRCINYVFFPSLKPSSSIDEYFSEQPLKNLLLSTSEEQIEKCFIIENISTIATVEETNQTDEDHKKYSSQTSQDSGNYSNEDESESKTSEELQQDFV
Chain of Type I IFN receptor (IFNAR1 and IFNAR2) on HEK-Blue 293 reporter cells (P48551 27-515 limits assumed, chain 2 of 2, further chain): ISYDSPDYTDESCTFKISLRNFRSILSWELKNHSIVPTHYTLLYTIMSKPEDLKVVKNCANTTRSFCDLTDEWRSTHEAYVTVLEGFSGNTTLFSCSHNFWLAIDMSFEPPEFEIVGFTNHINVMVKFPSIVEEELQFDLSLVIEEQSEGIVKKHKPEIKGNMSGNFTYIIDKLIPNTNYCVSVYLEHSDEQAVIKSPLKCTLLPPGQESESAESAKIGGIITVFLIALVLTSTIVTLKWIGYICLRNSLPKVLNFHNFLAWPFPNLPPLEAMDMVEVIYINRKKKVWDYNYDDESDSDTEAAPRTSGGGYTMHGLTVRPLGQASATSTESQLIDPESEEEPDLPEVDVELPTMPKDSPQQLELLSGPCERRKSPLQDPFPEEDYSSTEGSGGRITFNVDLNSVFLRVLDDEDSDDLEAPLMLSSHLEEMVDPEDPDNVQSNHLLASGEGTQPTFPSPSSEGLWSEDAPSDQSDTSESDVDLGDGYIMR

Substance	EC50 of SEAP reporter response, HEK-Blue IFN reporter cells [1]	MHC I (HLA I) expression, MFI by FACS against untreated 293T cells (fold increase) [1]	EC50 of SEAP reporter response, HEK-Blue IFN reporter cells [2]
soluble IFNβ (from UniProt P01574 22-187) (ligand)	0.9 pM	9	–
soluble IFNγ (from UniProt P01579 24-166) (ligand)	–	–	7.1 pM
